In the RNAGym collection of RNA variant scans (doi:10.1093/nar/gkz1192) one finds self-cleavage data, which are given here for 167 variants.

B1: CPEB3 Ribozyme (parent)
chain: UAACAGGGGGCCACAGCAGAAGCGUUCACGUCGCAGCCCCUGUCAGAUUCUGGUGAAUCUGCGAAUUCUGCUGUAUAUCUC

Variants of B1 are the subject of this data set. Put plainly: self-cleavage, relative activity (ratio to wild type); higher = more cleavage; in vitro, sequencing. The method in brief:
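Relative activity compares each variant's cleaved/total read fraction with that of the unmutated ribozyme. To get these fractions, barcoded CPEB3 ribozyme libraries from rounds of error-prone PCR were transcribed with T7 RNA polymerase for 5 hours at 37°C and then given 15 min of DNase I treatment before EDTA was added. The RNAs were reverse transcribed with template switching and sequenced on Illumina, and DNA sequencing linked barcodes to variants. A minimum of 5 reads applied, and three batches were averaged.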
Take G36U U48C: the self-cleavage was 0.17. For the variant A5U U49C, the self-cleavage is 0.55. On to U26G U31A, for which the self-cleavage was 0.3.

G42A U78C: the self-cleavage came to 0.21. As for C59G, the self-cleavage worked out at 0.32. For the variant A3G U60G, the self-cleavage stood at 0.45. With U43G A75G, the self-cleavage worked out at 0.24. As to A5G A20U, the self-cleavage stood at 0.37. Under A47G G53A stands 1.18; under A15C C34U, 0.29. For A21C C81G, the self-cleavage was found to be 0.3. With C37A U78C the figure was 0.35.

Consider C38G U67C, for which the self-cleavage is 0.11. Turning to U76A, the self-cleavage is 1.14. Under A15G A57G stands 0.63. As for A15U C38A, the self-cleavage worked out at 0.2.

With U41C U51G, the self-cleavage stood at 0.81.

Regarding U48C G63U, the self-cleavage was 0.57. U25A C27U: the self-cleavage was 0.15. With C12G U69C the figure was 0.11. With A20G G70A, the self-cleavage was 0.33. A18C U74G: the self-cleavage worked out at 0.31. With A15G U41C the figure was 0.74; with A47U G55U, 0.26.

Consider G52C G61C, for which the self-cleavage came out at 0.34. For the variant U49C U54A, the self-cleavage is 0.42. Turning to G52A U78C, the self-cleavage amounted to 1.13. Under A21G U58C stands 0.31; under U41C U69G, 0.79. A45G G46U: the self-cleavage was determined as 0.21. Consider A35G A77C, for which the self-cleavage was determined as 1.27. With G19U U58C the figure was 0.39. Turning to C12A U48G, the self-cleavage was determined as 0.2. Under U69C U72A stands 0.36. Turning to U51G U72G, the self-cleavage stood at 0.57. For A28G A57G, the self-cleavage was 0.51. Consider G6A G24U, for which the self-cleavage was 0.23. With U1A, the self-cleavage amounted to 0.98. Under G19U A45C stands 0.22; under G9U U69G, 0.18. For the variant G16U U78C, the self-cleavage turned out to be 0.27. With U1A A20U the figure was 0.32; with A15G A20G, 0.47; with C32U U60G, 0.4.

Regarding C11G U31A, the self-cleavage was 0.33. Under A13U U58A stands 0.44; under A13C A35G, 1.22.

With A5U U69C, the self-cleavage is 0.74. A5G U41G: the self-cleavage is 0.28. Regarding G24A U69C, the self-cleavage turned out to be 0.32. Consider U31C A57U, for which the self-cleavage turned out to be 0.47.

On to G7C C32U, for which the self-cleavage turned out to be 0.12. Regarding A13G A65G, the self-cleavage was determined as 0.41. With C44U U72A the figure was 0.14; with A5U G52U, 1.15; with A3U U72G, 1.09. With C12G A64U, the self-cleavage came out at 0.13.

As to C4U A35G, the self-cleavage turned out to be 1.29. As for G33A U76C, the self-cleavage is 0.19. Under A35U U51C stands 0.46; under A57U U58A, 0.3. Turning to C11U U54A, the self-cleavage came out at 0.45. As to G55A A57U, the self-cleavage is 0.54. Consider U25G A47U, for which the self-cleavage stood at 0.32. A13G G36U: the self-cleavage is 0.2. Turning to A3G C50A, the self-cleavage was found to be 0.82. For U31C U72C, the self-cleavage was determined as 0.97.

Regarding A65U U78C, the self-cleavage was 0.18. In the case of A5G U54G, the self-cleavage stood at 0.47. With G8A A64G the figure was 0.22; with G24A U41C, 0.3. For the variant C11G C81U, the self-cleavage came out at 0.86. Under U54G U69C stands 0.37; under U49C C62A, 0.17; under U51A G55U, 1.08. For the variant A13C C38A, the self-cleavage was determined as 0.33.

As for G33A U43C, the self-cleavage was 0.29. Under G7U U54C stands 0.24; under A18U U67A, 0.21. As for A2G U51G, the self-cleavage was 0.79. As for G19U A57G, the self-cleavage came to 0.48. Regarding A64G A77G, the self-cleavage came out at 0.84. Under C32A U78C stands 0.2; under A64C U72A, 0.27; under A64C U72C, 0.48. Consider C29U G73C, for which the self-cleavage came out at 1.15. Take C11U U67C: the self-cleavage turned out to be 0.18.

Turning to C37A A64G, the self-cleavage worked out at 0.25. On to A5U U60C, for which the self-cleavage turned out to be 0.58. On to A21C U54A, for which the self-cleavage amounted to 0.17.

Turning to A20G C79A, the self-cleavage was 1.09. Take U1C A47U: the self-cleavage was found to be 0.47.

In the case of A18C U60C, the self-cleavage is 0.28. With U25A U41G the figure was 0.22.

On to A18U C23A, for which the self-cleavage was found to be 0.1. With G46U U78C the figure was 0.27. On to C29A U41A, for which the self-cleavage came out at 0.37. With G10U U69A the figure was 0.18; with G24A G52A, 0.21; with U60A C71G, 0.35.

Turning to U54A A57G, the self-cleavage worked out at 0.91.

As to U25G A64U, the self-cleavage turned out to be 0.23. On to C12G U72A, for which the self-cleavage is 0.29. In the case of U31C C44G, the self-cleavage came to 0.31.

As to U49A G55A, the self-cleavage amounted to 0.78. On to C32U U49C, for which the self-cleavage was 0.21. Regarding A15G U69C, the self-cleavage was determined as 0.3. Take A35C U43C: the self-cleavage was 0.35. As to U49A C62U, the self-cleavage stood at 0.44. For G22C U67C, the self-cleavage turned out to be 0.11.

On to G19A U25A, for which the self-cleavage amounted to 0.28. Regarding C23U U43G, the self-cleavage came out at 0.11. As for G7C U49A, the self-cleavage was 0.26. Regarding A5U A28C, the self-cleavage came to 0.77. Turning to A13G A21U, the self-cleavage amounted to 0.35. On to A2G A18C, for which the self-cleavage was 0.43.

Consider G6U U80C, for which the self-cleavage came to 0.09. For U31C G61C, the self-cleavage was determined as 0.14.

C37U C79U: the self-cleavage was found to be 1.03. With C39A U78A, the self-cleavage was determined as 0.43. Turning to A21G U25A, the self-cleavage stood at 0.24. With A20U G46A the figure was 0.07.

On to G10A U49G, for which the self-cleavage was determined as 0.18. With U51A, the self-cleavage is 1.05. As for G9U U66G, the self-cleavage was 0.11. On to U51C A75U, for which the self-cleavage was determined as 0.98. Take U51C A75G: the self-cleavage came out at 1.01. Consider A20G U48A, for which the self-cleavage is 0.38. As to C14U A15G, the self-cleavage came out at 1.13. Consider G24A U54G, for which the self-cleavage is 0.15. For the variant A56U A64U, the self-cleavage stood at 0.28. With A47G A56C, the self-cleavage was 0.95. Under U69A U78A stands 0.92; under A13U A56G, 1.07; under A3U U80A, 1.23. Turning to A5G U74C, the self-cleavage is 1.01. On to A3G G7A, for which the self-cleavage was found to be 0.47.

Take G30C U72A: the self-cleavage was determined as 0.13. On to C29G U60A, for which the self-cleavage is 0.29.

On to U49C U66A, for which the self-cleavage turned out to be 0.31. Consider A15G A75U, for which the self-cleavage was found to be 1.02. As for A13U A20U, the self-cleavage is 0.54.

Consider A56G G70C, for which the self-cleavage came out at 0.21.

Regarding G9A G55C, the self-cleavage worked out at 0.24.

Consider C17A A75U, for which the self-cleavage is 0.2.

Take G22U U60A: the self-cleavage stood at 0.17. With A45U U51C the figure was 0.48; with U1C C29U, 0.33; with C12A C40U, 0.69. For the variant G9A U76C, the self-cleavage is 0.34.

Consider C40U U69A, for which the self-cleavage was determined as 0.41.

In the case of G7U U43A, the self-cleavage is 0.09. For U31A A75G, the self-cleavage was 0.47.

Take G33C A47G: the self-cleavage amounted to 0.08. For C11A A65U, the self-cleavage came out at 0.18. As to G33A A45G, the self-cleavage was 0.24. Under A47U U51G stands 0.47; under G42A A56G, 0.16; under A35C A57G, 0.93.

Turning to G30U A64G, the self-cleavage was determined as 0.23. As to U31C U74C, the self-cleavage came out at 1.18.

Consider C23U A75G, for which the self-cleavage stood at 0.27.

In the case of U26C G70U, the self-cleavage was 0.26. With A18C A45G, the self-cleavage turned out to be 0.29. Consider C23A U80A, for which the self-cleavage stood at 0.23. Take G52A U54C: the self-cleavage was found to be 1.09. Consider G9C A20G, for which the self-cleavage is 0.06.
